Results on 1 molecule are retold here after patent US5502166, “NMDH receptor proteins and genes encoding the same” (Mitsubishi Chemical Corporation, dated 1996).

For the assay, the target named is ζ1 NMDA type glutamate receptor subunit (mouse, wild type) (mouse, UniProt P35438). The assay is described as follows: cell-based or functional assay.

B1: glutamate receptor ε3 subunit (mouse NMDA type glutamate receptor channel subunit) (receptor)
chain: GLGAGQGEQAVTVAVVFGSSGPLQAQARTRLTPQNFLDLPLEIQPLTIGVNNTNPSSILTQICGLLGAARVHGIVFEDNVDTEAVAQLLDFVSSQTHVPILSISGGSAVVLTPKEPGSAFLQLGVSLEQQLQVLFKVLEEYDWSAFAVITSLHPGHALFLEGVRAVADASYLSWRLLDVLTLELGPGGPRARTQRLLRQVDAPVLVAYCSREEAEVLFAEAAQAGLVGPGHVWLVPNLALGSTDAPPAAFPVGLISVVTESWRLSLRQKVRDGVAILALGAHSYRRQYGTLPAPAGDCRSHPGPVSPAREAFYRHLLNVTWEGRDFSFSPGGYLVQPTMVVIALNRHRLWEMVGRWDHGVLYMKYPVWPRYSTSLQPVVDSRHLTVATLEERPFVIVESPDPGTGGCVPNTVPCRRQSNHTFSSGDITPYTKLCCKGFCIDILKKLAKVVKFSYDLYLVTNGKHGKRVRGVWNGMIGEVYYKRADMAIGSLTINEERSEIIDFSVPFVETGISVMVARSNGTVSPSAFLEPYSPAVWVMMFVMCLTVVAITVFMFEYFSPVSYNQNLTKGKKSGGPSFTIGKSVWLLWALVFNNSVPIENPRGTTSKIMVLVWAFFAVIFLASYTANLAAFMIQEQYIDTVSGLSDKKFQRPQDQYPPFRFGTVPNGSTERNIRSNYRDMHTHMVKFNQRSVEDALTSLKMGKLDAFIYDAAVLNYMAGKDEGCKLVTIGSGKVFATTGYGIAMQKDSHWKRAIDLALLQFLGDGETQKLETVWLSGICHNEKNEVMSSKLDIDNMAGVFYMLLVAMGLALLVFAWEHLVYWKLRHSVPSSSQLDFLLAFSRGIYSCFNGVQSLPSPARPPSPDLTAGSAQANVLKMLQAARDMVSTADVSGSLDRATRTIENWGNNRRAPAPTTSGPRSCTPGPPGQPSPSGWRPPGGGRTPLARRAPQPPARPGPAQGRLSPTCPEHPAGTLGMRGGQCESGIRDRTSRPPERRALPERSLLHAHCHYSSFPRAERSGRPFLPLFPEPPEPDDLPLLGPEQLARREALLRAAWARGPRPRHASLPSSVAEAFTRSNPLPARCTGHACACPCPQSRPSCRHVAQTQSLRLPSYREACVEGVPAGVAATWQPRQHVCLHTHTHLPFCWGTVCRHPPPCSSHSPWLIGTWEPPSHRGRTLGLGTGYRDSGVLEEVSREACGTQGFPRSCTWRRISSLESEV
Consider B1, for which the “inward current at a membrane potential of -70 mV, Xenopus oocytes, 10 µM L-glutamate and 10 µM glycine, frog standard Ringer's solution” value is 191 nA.
